Source: patent US20260210939A1, “MODIFIED OLFACTORY RECEPTORS” (GIVAUDAN SA, priority 2022, published 2026)
pEC50: −log10 of the molar value.

How the values were obtained:
[1] = target: T1, OR5B12 (Homo sapiens, UniProt Q96R08, C141R); assay: CRE-luciferase assay, HEK293T cells expressing OR5B12 (wild-type / modified C-terminus); type: cell-based; conditions: for Fold-improvement potency / Fold-improvement threshold: changed C-term. vs wild-type; for % of the activation by the optimized sequence RNKEVKDALKRLLKRKCC: OR5B12 variant
T1 construct: Improved functional expression of modified OR-genes containing the truncated, optimized C-terminus; expressed in transfected cells; host or cells: HEK293T stably expressing human RTP1S(V227I) and RTP2(L220R)
T1 sequence (Q96R08 with tags, fused parts or gaps C141R): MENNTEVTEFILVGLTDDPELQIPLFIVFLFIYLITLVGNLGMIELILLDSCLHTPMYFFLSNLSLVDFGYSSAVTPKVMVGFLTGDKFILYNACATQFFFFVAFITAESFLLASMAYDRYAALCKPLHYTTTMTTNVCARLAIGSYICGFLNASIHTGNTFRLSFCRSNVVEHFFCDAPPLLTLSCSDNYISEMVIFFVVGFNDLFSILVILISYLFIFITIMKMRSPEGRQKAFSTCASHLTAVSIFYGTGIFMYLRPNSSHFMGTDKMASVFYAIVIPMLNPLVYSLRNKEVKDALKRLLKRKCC

[2] = target: T2, OR7C1 (Homo sapiens, UniProt O76099, D296E/G302K/M297V/R299D/T295K/V126I); assay: CRE-luciferase assay, HEK293T cells expressing OR7C1 (wild-type / modified C-terminus); type: cell-based; conditions: OR7C1 variant, 1 μM Ambermax
T2 construct: Improved functional expression of modified OR-genes containing the truncated, optimized C-terminus; expressed in transfected cells; host or cells: HEK293T stably expressing human RTP1S(V227I) and RTP2(L220R)
T2 sequence (O76099 with tags, fused parts or gaps V126I/T295K/D296E/M297V/R299D/G302K): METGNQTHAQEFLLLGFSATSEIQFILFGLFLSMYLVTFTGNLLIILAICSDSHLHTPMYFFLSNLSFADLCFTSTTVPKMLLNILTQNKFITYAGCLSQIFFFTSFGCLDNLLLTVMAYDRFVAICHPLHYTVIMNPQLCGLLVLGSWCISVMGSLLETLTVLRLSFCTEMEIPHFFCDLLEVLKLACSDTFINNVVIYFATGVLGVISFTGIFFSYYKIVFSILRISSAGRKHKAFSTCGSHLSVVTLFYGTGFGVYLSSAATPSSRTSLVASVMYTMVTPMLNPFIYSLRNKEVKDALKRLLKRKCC
Text: To test for possible variants of the sequence […]CC (SEQ ID NO: 86) leading to similar improved functional expression, different point mutations were introduced into the first 16 amino acids of this sequence (corresponding to […], SEQ ID NO: 10) and the variants were fused after the TM7 with OR7C1. […] The test concentrations were selected to fall into the range of partial activity of the wild-type sequence.

% of the activation by the optimized sequence RNKEVKDALKRLLKRKCC [2] [%]	Molecule	further results
280.9	SEQ ID NO: 126 (RNKEVKRALKRLLKRKFK; source 1..18: note = C-terminal domain sequence)	
308.5	SEQ ID NO: 127 (RNKEVKKALKRLLKRKRR; source 1..18: note = C-terminal domain sequence)	
286.4	SEQ ID NO: 130 (RNKEVKKALKRLLKRKFK; source 1..18: note = C-terminal domain sequence)	
168.8	SEQ ID NO: 158 (RNKEVKDALKRLLKRKCRRRKK; source 1..22: note = C-terminal domain sequence)	
3.9	SEQ ID NO: 191 (RNKEVKDVLKRLLKRKCC; source 1..18: note = C-terminal domain sequence)	
27.0	SEQ ID NO: 192 (RNKEVKDAMKRLLKRKCC; source 1..18: note = C-terminal domain sequence)	
12.3	SEQ ID NO: 193 (RNKEVKDALKHLLKRKCC; source 1..18: note = C-terminal domain sequence)	
14.1	SEQ ID NO: 195 (RNKEVKDALKRLRKRKCC; source 1..18: note = C-terminal domain sequence)	
5.6	SEQ ID NO: 197 (RNKEVKDALKRLLERKCC; source 1..18: note = C-terminal domain sequence)	
46.0	SEQ ID NO: 321 (RNKEVKCALKRLLKRKCC; source 1..18: note = C-terminal domain sequence)	
65.6	SEQ ID NO: 323 (RNKEVKHALKRLLKRKCC; source 1..18: note = C-terminal domain sequence)	
107.6	SEQ ID NO: 326 (RNKEVKMALKRLLKRKCC; source 1..18: note = C-terminal domain sequence)	
17.4	SEQ ID NO: 330 (RNKEVKWALKRLLKRKCC; source 1..18: note = C-terminal domain sequence)	
1.0	Ser Gln	
225.3	Ser Ile	
127.8	Tyr Arg	
221.7	Tyr Pro	
1.3	Val Met	

Further lines, the molecule ahead of its results:

Molecule	% of the activation by the optimized sequence RNKEVKDALKRLLKRKCC [2] [%]	further results
CCCCCC1C(=O)CCC1CC(=O)OC (racemic) [Hedione HC, reference compound]		Comments on efficacy [1]: 4-fold lower; Detection threshold; concentration for 2-fold induction ([1]; changed C-term. SEQ ID NO: 86): 8.8 µM; pEC50 ([1]; changed C-term. SEQ ID NO: 86): 4.74; Fold-improvement potency [1]: 3.8; Fold-improvement threshold [1]: 11; Detection threshold; concentration for 2-fold induction ([1]; wild-type): 96 µM; pEC50 ([1]; wild-type): 4.16
CCCCCC1C(=O)CCC1CC(=O)OC (stereo not shown) [Hedione, reference compound]		Comments on efficacy [1]: type only 1.75-; Detection threshold; concentration for 2-fold induction ([1]; changed C-term. SEQ ID NO: 86): 29 µM; pEC50 ([1]; changed C-term. SEQ ID NO: 86): 4.23; Fold-improvement potency [1]: >5; Fold-improvement threshold [1]: >9; Detection threshold; concentration for 2-fold induction ([1]; wild-type): (>>250) μM; pEC50 ([1]; wild-type): < 3.60
SEQ ID NO: 128 (RNKEVKKALKRLLKRKYP; source 1..18: note = C-terminal domain sequence)	206.9	
SEQ ID NO: 129 (RNKEVKKALKRLLKRKRF; source 1..18: note = C-terminal domain sequence)	294.8	
SEQ ID NO: 134 (RNKEVKDALKRLLKRKCCC; source 1..19: note = C-terminal domain sequence)		% of the activation by the optimized sequence RNKEVKDALKRLLKRKCC ([1]; 31 μM Hedione HC): 168.91%; % of the activation by the optimized sequence RNKEVKDALKRLLKRKCC ([1]; 62.5 μM Hedione HC): 121.37%
SEQ ID NO: 135 (RNKEVKDALKRLLKRKCCF; source 1..19: note = C-terminal domain sequence)		% of the activation by the optimized sequence RNKEVKDALKRLLKRKCC ([1]; 31 μM Hedione HC): 207.32%; % of the activation by the optimized sequence RNKEVKDALKRLLKRKCC ([1]; 62.5 μM Hedione HC): 127.22%
SEQ ID NO: 136 (RNKEVKDALKRLLKRKCCL; source 1..19: note = C-terminal domain sequence)		% of the activation by the optimized sequence RNKEVKDALKRLLKRKCC ([1]; 31 μM Hedione HC): 533.84%; % of the activation by the optimized sequence RNKEVKDALKRLLKRKCC ([1]; 62.5 μM Hedione HC): 189.64%
SEQ ID NO: 137 (RNKEVKDALKRLLKRKCCM; source 1..19: note = C-terminal domain sequence)		% of the activation by the optimized sequence RNKEVKDALKRLLKRKCC ([1]; 31 μM Hedione HC): 177.47%; % of the activation by the optimized sequence RNKEVKDALKRLLKRKCC ([1]; 62.5 μM Hedione HC): 182.76%
SEQ ID NO: 138 (RNKEVKDALKRLLKRKCCS; source 1..19: note = C-terminal domain sequence)		% of the activation by the optimized sequence RNKEVKDALKRLLKRKCC ([1]; 31 μM Hedione HC): 176.99%; % of the activation by the optimized sequence RNKEVKDALKRLLKRKCC ([1]; 62.5 μM Hedione HC): 75.63%
SEQ ID NO: 139 (RNKEVKDALKRLLKRKCCP; source 1..19: note = C-terminal domain sequence)		% of the activation by the optimized sequence RNKEVKDALKRLLKRKCC ([1]; 31 μM Hedione HC): 98.68%; % of the activation by the optimized sequence RNKEVKDALKRLLKRKCC ([1]; 62.5 μM Hedione HC): 98.17%
SEQ ID NO: 140 (RNKEVKDALKRLLKRKCCA; source 1..19: note = C-terminal domain sequence)		% of the activation by the optimized sequence RNKEVKDALKRLLKRKCC ([1]; 31 μM Hedione HC): 230.04%; % of the activation by the optimized sequence RNKEVKDALKRLLKRKCC ([1]; 62.5 μM Hedione HC): 143.71%
SEQ ID NO: 154 (RNKEVKDALKRLLKRKCRRRR; source 1..21: note = C-terminal domain sequence)	263.5	
SEQ ID NO: 157 (RNKEVKDALKRLLKRKCRRRRR; source 1..22: note = C-terminal domain sequence)	204.3	
SEQ ID NO: 186 (KNKEVKDALKRLLKRKCC; source 1..18: note = C-terminal domain sequence)	26.0	
SEQ ID NO: 187 (RTKEVKDALKRLLKRKCC; source 1..18: note = C-terminal domain sequence)	3.3	
SEQ ID NO: 188 (RQKEVKDALKRLLKRKCC; source 1..18: note = C-terminal domain sequence)	28.5	
SEQ ID NO: 189 (RNHEVKDALKRLLKRKCC; source 1..18: note = C-terminal domain sequence)	16.2	
SEQ ID NO: 190 (RNKEVKDGLKRLLKRKCC; source 1..18: note = C-terminal domain sequence)	4.6	
SEQ ID NO: 194 (RNKEVKDALKRVVKRKCC; source 1..18: note = C-terminal domain sequence)	30.4	
SEQ ID NO: 196 (RNKEVKDALKRLKKRKCC; source 1..18: note = C-terminal domain sequence)	5.7	
SEQ ID NO: 322 (RNKEVKFALKRLLKRKCC; source 1..18: note = C-terminal domain sequence)	41.1	
SEQ ID NO: 324 (RNKEVKIALKRLLKRKCC; source 1..18: note = C-terminal domain sequence)	81.0	
SEQ ID NO: 325 (RNKEVKLALKRLLKRKCC; source 1..18: note = C-terminal domain sequence)	108.0	
SEQ ID NO: 327 (RNKEVKPALKRLLKRKCC; source 1..18: note = C-terminal domain sequence)	−3.7	
SEQ ID NO: 328 (RNKEVKSALKRLLKRKCC; source 1..18: note = C-terminal domain sequence)	99.1	
SEQ ID NO: 329 (RNKEVKTALKRLLKRKCC; source 1..18: note = C-terminal domain sequence)	129.9	
SEQ ID NO: 331 (RNKEVKYALKRLLKRKCC; source 1..18: note = C-terminal domain sequence)	59.4	
Tyr Leu	95.4	
Tyr Tyr	108.3	
Val Ser	4.3	
